The text below walks through data of US20090299038A1 (LIVTECH, published 2009).

Numbering of substitutions follows the chain as printed. Several values for one entry are separate records, joined by “and”; a condition that tells them apart may be missing. Equal values may be shown once.

Test [1] has as its target T1, purified recombinant hFA-1 protein (hDlk-1 extracellular region) (human, UniProt P80370 24-303).
T1 construct: also called human FA1; FA-1 region of hDlk-1; not shown: C-terminal Myc tag and His tag from the pcDNA4/Myc-His vector
T1 sequence: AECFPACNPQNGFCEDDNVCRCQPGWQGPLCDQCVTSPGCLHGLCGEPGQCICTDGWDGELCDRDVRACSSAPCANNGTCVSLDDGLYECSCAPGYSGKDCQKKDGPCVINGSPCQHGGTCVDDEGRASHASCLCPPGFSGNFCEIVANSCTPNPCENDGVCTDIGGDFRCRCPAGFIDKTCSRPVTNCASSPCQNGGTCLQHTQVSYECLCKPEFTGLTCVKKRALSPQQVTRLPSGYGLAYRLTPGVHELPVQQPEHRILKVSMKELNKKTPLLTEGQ
Nature of the test: ELISA method (Djavadi-Ohaniance): antibody 0.5 nM equilibrated with hFA-1 in solution, then added to immobilised hFA-1. (In general: ELISA stands for enzyme-linked immunosorbent assay.)

For test [2], the target named is T1, purified recombinant hFA-1 protein …. Nature of the test: ELISA, antibody dilution series on immobilised hFA-1.
Test [3] addresses T2, hDlk-1 EGF-like motif deletion mutant EGF (4-6) expressed on COS-7 cells (human, UniProt P80370 131-244).
T2 construct: also called hdlk-EGF (4-6)/pME18S-CFHX
T2 sequence: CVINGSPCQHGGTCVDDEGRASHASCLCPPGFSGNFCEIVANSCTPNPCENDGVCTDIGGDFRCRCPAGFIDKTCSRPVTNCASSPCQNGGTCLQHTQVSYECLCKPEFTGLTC
The test can be described thus: FACS of transfected COS-7 cells.

Test [4] has as its target T3, hDlk-1 EGF-like motif deletion mutant EGF (5-6) expressed on COS-7 cells (human, UniProt P80370 170-245).
T3 construct: also called hDlk-1 (EGF 5-6)-pME18-CHFX
T3 sequence: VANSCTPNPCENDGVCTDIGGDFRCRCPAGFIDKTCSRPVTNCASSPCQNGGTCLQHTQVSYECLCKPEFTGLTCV
The test can be described thus: FACS of transfected COS-7 cells.

B1: mouse anti-hDlk-1 monoclonal antibody clone DI-2-14 (antibody, V domains shown)
VH: EVQLQQSGAELVKPGASVKLSCTASGFNIRDTYIHWVKQRPEQGLEWIGRIDPPNGNLKYDPKFQGKATITADTSSNTAYLQFSSLTSEDTAVYYCARSDGYSFAYWGQGTLVTVSA
VL: DIVMTQAAPSVPVTPGESVSISCRSSKSLLHSNGNTYLYWFLQRPGQSPQLLIYRMSNLASGVPDRFSGSGSGTAFTLRISRVEAEDVGVYYCMQHVEYPFTFGSGTKLEIK
notes: also called mouse DI-2-14 antibody; clone DI-2-14 (mouse IgG1)
As to B1, the Kd – broadly, a measure of binding affinity in units of concentration – in test [1] is 4.02 nM and 9.26 nM. For the same molecule, the EC50 (in general, the concentration at which the effect is half-maximal) in test [2] is under 0.01 µg/mL. For the same molecule, the binding result in test [3] and in test [4] was “no binding” each time.

B2: humanized anti-hDlk-1 monoclonal antibody HuDI-2-14-1 (antibody, V domains shown)
VH: QVQLVQSGAEVKKPGSSVKVSCKASGFNIRDTYIHWVRQAPGQGLEWIGRIDPPNGNLKYDPKFQGKATITADTSTSTAYMEFSSLRSEDTAVYYCARSDGYSFAYWGQGTLVTVSS
VL: B1 VL with A7S, A8P, P9L, V11L, S18P, V19A, R44K, R79K, S105Q, L109V
notes: also called HuDI-2-14-1 IgG1/κ
For the molecule B2, in test [1], the Kd worked out at 2.8 nM. In addition, the EC50 in test [2] was under 0.01 µg/mL.

B3: mouse-human chimeric DI-2-14 antibody (ChDI-2-14) (antibody, V domains shown)
VH: B1 VH
VL: B1 VL
notes: also called DI-2-14 IgG1/κ
Take B3: the dissociation constant Kd in test [1] worked out at 3.4 nM. Also, the EC50 in test [2] was under 0.01 µg/mL.

B4: humanized anti-hDlk-1 monoclonal antibody HuDI-2-14-2 (antibody, V domains shown)
VH: B2 VH with F83L
VL: B1 VL with A7S, A8P, P9L, V11L, S18P, V19A, R44K, R79K, S105Q, L109V
notes: also called HuDI-2-14-2 IgG1/κ
In the case of B4, in test [1], the equilibrium dissociation constant (Kd) is 3.1 nM. Moreover, the EC50 in test [2] was under 0.01 µg/mL.
